Experimental findings from patent US20050070694A1 (Eli Lilly, published 2005) are described below.

Test [1] deals with Chimera D (human TNFSF13b L53V, K55R, E56Q) (human, UniProt Q9Y275 134-285). In words: cell-based or functional assay.
For test [2], the target named is Chimera E (human TNFSF13b E105K) (human, UniProt Q9Y275 134-285). The test can be described thus: cell-based or functional assay.
Test [3] has as its target T1, recombinant soluble human TNFSF13b (hTNFSF13b) (human, UniProt Q9Y275 134-285). In words: cell-based or functional assay.
Test [4] addresses Chimera A (human TNFSF13b L139R, D140N) (human, UniProt Q9Y275 134-285). The test can be described thus: cell-based or functional assay.
Test [5] has as its target Chimera B (human TNFSF13b K71P, T72I, Y73F) (human, UniProt Q9Y275 134-285). In words: cell-based or functional assay.
In another test the target is T2, murine TNFSF13b (mouse, UniProt Q9WU72 127-309).
T2 construct: Used as supernatants of CHO cells or 293 transfectants expressing murine TNFSF13b, and as purified protein; also called Mouse TNFSF13b; mouse TNFSF13b parent molecule
T2 sequence (Q9WU72 127-309 limits assumed): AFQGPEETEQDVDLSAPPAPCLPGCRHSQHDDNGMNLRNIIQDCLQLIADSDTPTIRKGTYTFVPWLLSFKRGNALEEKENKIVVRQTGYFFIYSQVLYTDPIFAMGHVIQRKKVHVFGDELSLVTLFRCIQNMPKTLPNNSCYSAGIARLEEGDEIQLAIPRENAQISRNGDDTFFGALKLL
The test can be described thus: sandwich ELISA with 4A5-3.1.1-B4 as both capture and detecting mAb. A general note: ELISA stands for enzyme-linked immunosorbent assay.

In test [6] the target is T1, recombinant soluble human TNFSF13b …. In words: BIAcore 2000 SPR at 25 C; antibody captured by anti-human IgG Fc, hTNFSF13b as analyte from 50 nM in 2-fold dilutions; Langmuir 1:1 model. In general terms: SPR reads the build-up and loss of mass on a sensor chip optically.

T1 sequence (Q9Y275 134-285): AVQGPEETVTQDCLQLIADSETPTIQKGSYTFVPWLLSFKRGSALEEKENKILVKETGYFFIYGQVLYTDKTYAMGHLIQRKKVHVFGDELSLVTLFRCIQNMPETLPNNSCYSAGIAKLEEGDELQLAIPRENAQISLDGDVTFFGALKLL
Sequence of Chimera B (human TNFSF13b K71P, T72I, Y73F) (Q9Y275 134-285, stated change not applied): as the sequence (Q9Y275 134-285) above
Sequence of Chimera A (human TNFSF13b L139R, D140N) (Q9Y275 134-285, stated change not applied): as the sequence (Q9Y275 134-285) above
Sequence of Chimera D (human TNFSF13b L53V, K55R, E56Q) (Q9Y275 134-285, stated change not applied): as the sequence (Q9Y275 134-285) above
Sequence of Chimera E (human TNFSF13b E105K) (Q9Y275 134-285, stated change not applied): as the sequence (Q9Y275 134-285) above

B1: human antibody 4A5-3.1.1-B4 (antibody, V domains shown)
VH: QVQLQQWGAGLLKPSETLSLTCAVYGGSFSGYYWSWIRQPPGKGLEWIGEINHSGSTNYNPSLKSRVTISVDTSKNQFSLKLSSVTAADTAVYYCARGYYDILTGYYYYFDYWGQGTLVTVSS
VL: EIVLTQSPATLSLSPGERATLSCRASQSVSRYLAWYQQKPGQAPRLLIYDASNRATGIPARFSGSGSGTDSTLTISSLEPEDFAVYYCQQRSNWPRTFGQGTKVEIKR
notes: Hybridoma-derived human monoclonal antibody from HuMAb mice, with a human kappa light chain; also called 4A5 mAb; 4A5-3.1.11-B4
By Kd is commonly meant the constant that tells how readily two partners part at equilibrium. Take B1: the “neutralization of proliferation, 293 supernatants, 6 ug/ml of 4A5-3.1.1-B4” value in test [1], in test [2], in test [3], in test [4] and in test [5] was 100% each time. In addition, the “neutralization of proliferation, 11 ng/ml purified TNFSF13b, 1 ug/ml of 4A5-3.1.1-B4” value in test [3] turned out to be 100%; in test [4], 100%; in test [5] it was 88%. The binding result with murine TNFSF13b is listed as “no binding”. Besides, the Kd in test [6] worked out at 0.038 nM.
